# Test results from article PMC11900463.
# Where a chain is given by its changes, count along the chain named. In names and notes the source's numbering stands.
# T1: sCPR (truncated soluble form of rat NADPH–cytochrome P450 reductase) (rat) (UniProt P00388)
# T1 sequence (P00388 whole entry, looked up): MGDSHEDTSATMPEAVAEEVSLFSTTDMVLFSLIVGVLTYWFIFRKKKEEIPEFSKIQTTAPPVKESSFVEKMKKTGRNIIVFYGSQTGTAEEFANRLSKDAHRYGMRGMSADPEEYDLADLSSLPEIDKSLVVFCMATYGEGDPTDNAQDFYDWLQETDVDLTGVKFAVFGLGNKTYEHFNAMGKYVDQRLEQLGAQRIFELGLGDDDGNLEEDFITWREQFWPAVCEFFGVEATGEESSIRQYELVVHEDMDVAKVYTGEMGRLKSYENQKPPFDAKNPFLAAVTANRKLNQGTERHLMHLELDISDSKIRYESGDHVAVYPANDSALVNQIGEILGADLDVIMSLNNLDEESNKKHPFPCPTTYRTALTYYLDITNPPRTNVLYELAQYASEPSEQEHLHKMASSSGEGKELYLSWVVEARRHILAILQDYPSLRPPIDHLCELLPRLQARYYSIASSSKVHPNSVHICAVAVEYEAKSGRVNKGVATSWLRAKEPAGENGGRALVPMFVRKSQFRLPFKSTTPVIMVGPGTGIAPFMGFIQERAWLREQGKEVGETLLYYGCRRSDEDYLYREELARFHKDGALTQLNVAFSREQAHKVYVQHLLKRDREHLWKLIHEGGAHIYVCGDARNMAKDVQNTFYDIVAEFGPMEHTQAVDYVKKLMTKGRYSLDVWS
# B1: 6xHis-tagged C281S tsHO-2 (enzyme)
# chain: MADLSELLKEGTKEAHDRAENTQFVKDFLKGNIKKELFKLATTALYFTYSALEEEMDRNKDHPAFAPLYFPTELHRKEALIKDMEYFFGENWEEQVKCSEAAQKYVDRIHYVGQNEPELLVAHAYTRYMGDLSGGQVLKKVAQRALKLPSTGEGTQFYLFEHVDNAQQFKQFYRARMNALDLSMKTKERIVEEANKAFEYNMQIFSELDQAGSMLTKETLEDGLPVHDGKGDVRKCPFYAAQPDKGTLGGSNSPFRTAMAVLRK
# B2: 6xHis-tagged C264S tsHO-2 (enzyme)
# chain: B1 chain with C236S, S253C
# B3: 6xHis-tagged C264S/C281S tsHO-2 (enzyme)
# chain: B1 chain with C236S
# Molecular target: T1, sCPR (truncated soluble form of rat NADPH–cytochrome P450 reductase) (rat)
"apparent reduction rate constant of heme by sCPR (formation of the CO-bound heme complex, CO-saturated, anaerobic, 30 °C; non-His-tagged enzyme)","enzymatic activity (rate of bilirubin formation at 37 °C with 2.9 μM sCPR, 40 μM heme, NADPH; non-His-tagged enzyme)",Molecule
106 min⁻¹,14.3 min⁻¹,6xHis-tagged ΔHRM tsHO-2 (from UniProt P23711 29-292) (enzyme)
89.6 min⁻¹,7.32 min⁻¹,B1
93.2 min⁻¹,4.91 min⁻¹,B2
113 min⁻¹,11.2 min⁻¹,B3
